# Data reported in paper doi:10.1101/432138.
# B1: Fib1 fibrinogen (protein)
# chain 1: GPRVVERHQSACKDSDWPFCSDEDWNYKCPSGCRMKGLIDEVNQDFTNRINKLKNSLFEYQKNNKDSHSLTTNIMEILRGDFSSANNRDNTYNRVSEDLRSRIEVLKRKVIEKVQHIQLLQKNVRAQLVDMKRLEVDIDIKIRSCRGSCSRALAREVDLKDYEDQQKQLEQVIAKDLLPSRDRQHLPLIKMKPVPDLVPGNFKSQLQKVPPEWKALTDMPQMRMELERPGGNEITRGGSTSYGTGSETESPRNPSSAGSWNSGSSGPGSTGNRNPGSSGTGGTATWKPGSSGPGSTGSWNSGSSGTGSTGNQNPGSPRPGSTGTWNPGSSERGSAGHWTSESSVSGSTGQWHSESGSFRPDSPGSGNARPNNPDWGTFEEVSGNVSPGTRREYHTEKLVTSKGDKELRTGKEKVTSGSTTTTRRSCSKTVTKTVIGPDGHKEVTKEVVTSEDGSDCPEAMDLGTLSGIGTLDGFRHRHPDEAAFFDTASTGKTFPGFFSPMLGEFVSETESRGSESGIFTNTKESSSHHPGIAEFPSRGKSSSYSKQFTSSTSYNRGDSTFESKSYKMADEAGSEADHEGTHSTKRGHAKSRPVRDCDDVLQTHPSGTQSGIFNIKLPGSSKIFSVYCDQETSLGGWLLIQQRMDGSLNFNRTWQDYKRGFGSLNDEGEGEFWLGNDYLHLLTQRGSVLRVELEDWAGNEAYAEYHFRVGSEAEGYALQVSSYEGTAGDALIEGSVEEGAEYTSHNNMQFSTFDRDADQWEENCAEVYGGGWWYNNCQAANLNGIYYPGGSYDPRNNSPYEIENGVVWVSFRGADYSLRAVRMKIRPLVTQ
# chain 2: GHRPLDKKREEAPSLRPAPPPISGGGYRARPAKAAATQKKVERKAPDAGGCLHADPDLGVLCPTGCQLQEALLQQERPIRNSVDELNNNVEAVSQTSSSSFQYMYLLKDLWQKRQKQVKDNENVVNEYSSELEKHQLYIDETVNSNIPTNLRVLRSILENLRSKIQKLESDVSAQMEYCRTPCTVSCNIPVVSGKECEEIIRKGGETSEMYLIQPDSSVKPYRVYCDMNTENGGWTVIQNRQDGSVDFGRKWDPYKQGFGNVATNTDGKNYCGLPGEYWLGNDKISQLTRMGPTELLIEMEDWKGDKVKAHYGGFTVQNEANKYQISVNKYRGTAGNALMDGASQLMGENRTMTIHNGMFFSTYDRDNDGWLTSDPRKQCSKEDGGGWWYNRCHAANPNGRYYWGGQYTWDMAKHGTDDGVVWMNWKGSWYSMRKMSMKIRPFFPQQ
# chain 3: YVATRDNCCILDERFGSYCPTTCGIADFLSTYQTKVDKDLQSLEDILHQVENKTSEVKQLIKAIQLTYNPDESSKPNMIDAATLKSRKMLEEIMKYEASILTHDSSIRYLQEIYNSNNQKIVNLKEKVAQLEAQCQEPCKDTVQIHDITGKDCQDIANKGAKQSGLYFIKPLKANQQFLVYCEIDGSGNGWTVFQKRLDGSVDFKKNWIQYKEGFGHLSPTGTTEFWLGNEKIHLISTQSAIPYALRVELEDWNGRTSTADYAMFKVGPEADKYRLTYAYFAGGDAGDAFDGFDFGDDPSDKFFTSHNGMQFSTWDNDNDKFEGNCAEQDGSGWWMNKCHAGHLNGVYYQGGTYSKASTPNGYDNGIIWATWKTRWYSMKKTTMKIIPFNRLTIGEGQQHHLGGAKQVRPEHPAETEYDSLYPEDDL
# Target: P02671
# Assay: SEC-MALS
protein,measurement,value
B1,relative mass of the aggregates,about 4% of the total mass of fibrinogen
